{"source": "patent US20040005324A1", "binders": {"B1": {"name": "human monoclonal Fab RSVF2-5 (Fab, V domains shown)", "VH": "LEESGGDLVQPGRSLRLSCSTSGFSFGDYPVNWFRQAPGKGLEWLGIVRSRLYGGTLQYAASVEGRFTISRDDSKSIAYLHMNSLKSEDTAVYYCGVPVANIDYWGQGTLVTVSSASTKGPSS", "VL": "LTQPHSVSESLGKTVTISCTRAGGRIASNYVQWYQQRPGSSPTTVIYEDNQRPFGVPDRFSGSIDTSSNSASLTISGLKTEDEADYYCQSYDSENPWVFGGGTKLTVLG"}}, "assay_in_all_cases": "cell-based or functional assay", "key": {"[1]": {"biological_target": "RSV F glycoprotein of MARM v1302A/1 (strain A2 escape mutant, substitutions at aa 241/421) (respiratory syncytial virus strain A2), P03420"}, "[2]": {"biological_target": "RSV F glycoprotein of MARM v1308F (strain A2 escape mutant, substitutions at aa 241/421) (respiratory syncytial virus strain A2), P03420"}, "[3]": {"biological_target": "RSV F glycoprotein of MARM v1302A/6 (strain A2 escape mutant, substitutions at aa 241/421) (respiratory syncytial virus strain A2), P03420"}, "[4]": {"biological_target": "RSV F glycoprotein of MARM v1269 (strain A2 escape mutant, substitution at aa 389) (respiratory syncytial virus strain A2), P03420"}}}
{"binder": "B1", "values": [{"measurement": "Dose for 60% plaque reduction", "setting": "[1]", "result": 1.4, "unit": "µg/mL"}, {"measurement": "Dose for 60% plaque reduction", "setting": "[2]", "result": 1, "unit": "µg/mL"}, {"measurement": "Dose for 60% plaque reduction", "setting": "[3]", "result": "< 0.3", "unit": "µg/mL"}, {"measurement": "Dose for 60% plaque reduction", "setting": "[4]", "result": "< 0.3", "unit": "µg/mL"}]}
